From patent US20230192890A1

Assays:
[1] = biological target: full-length recombinant mouse PAD4 (mouse) (UniProt Q9Z183); test: ELISA, mouse PAD4 on plate, antibody 0.0009766 ug/mL
[2] = biological target: T1, Ala mutant SEQ ID NO: 36 (human); test: ELISA, peptide on plate (10 ug/mL)
T1 sequence (peptide): EENMDDQWMADEMEIGY

[3] = biological target: T2, Ala mutant SEQ ID NO: 33 (human); test: ELISA, peptide on plate (10 ug/mL)
T2 sequence (peptide): EENMDDAWMQDEMEIGY

[4] = biological target: Ala mutant SEQ ID NO: 34 (human); test: ELISA, peptide on plate (10 ug/mL)
[5] = biological target: T3, Ala mutant having 3-amino acid substitution, SEQ ID NO: 48 (human); test: ELISA, peptide on plate (10 ug/mL)
T3 sequence (peptide): EENMDDQWMQDEAAAGY

[6] = biological target: Ala mutant SEQ ID NO: 35 (human); test: ELISA, peptide on plate (10 ug/mL)
[7] = biological target: T4, Ala mutant having 3-amino acid substitution, SEQ ID NO: 44 (human); test: ELISA, peptide on plate (10 ug/mL)
T4 sequence (peptide): AAAMDDQWMQDEMEIGY

[8] = biological target: T5, Ala mutant SEQ ID NO: 43 (human); test: ELISA, peptide on plate (10 ug/mL)
T5 sequence (peptide): EENMDDQWMQDEMEIGA

[9] = biological target: T6, Ala mutant having 3-amino acid substitution, SEQ ID NO: 49 (human); test: ELISA, peptide on plate (10 ug/mL)
T6 sequence (peptide): EENMDDQWMQDEMEIAA

[10] = biological target: T7, Ala mutant SEQ ID NO: 40 (human); test: ELISA, peptide on plate (10 ug/mL)
T7 sequence (peptide): EENMDDQWMQDEMAIGY

[11] = biological target: T8, Ala mutant SEQ ID NO: 38 (human); test: ELISA, peptide on plate (10 ug/mL)
T8 sequence (peptide): EENMDDQWMQDAMEIGY

[12] = biological target: T9, Ala mutant SEQ ID NO: 28 (human); test: ELISA, peptide on plate (10 ug/mL)
T9 sequence (peptide): EANMDDQWMQDEMEIGY

[13] = biological target: T10, Ala mutant SEQ ID NO: 42 (human); test: ELISA, peptide on plate (10 ug/mL)
T10 sequence (peptide): EENMDDQWMQDEMEIAY

[14] = biological target: T11, Ala mutant SEQ ID NO: 41 (human); test: ELISA, peptide on plate (10 ug/mL)
T11 sequence (peptide): EENMDDQWMQDEMEAGY

[15] = biological target: T12, Ala mutant SEQ ID NO: 32 (human); test: ELISA, peptide on plate (10 ug/mL)
T12 sequence (peptide): EENMDAQWMQDEMEIGY

[16] = biological target: T13, Ala mutant SEQ ID NO: 27 (human); test: ELISA, peptide on plate (10 ug/mL)
T13 sequence (peptide): AENMDDQWMQDEMEIGY

[17] = biological target: T14, Ala mutant SEQ ID NO: 29 (human); test: ELISA, peptide on plate (10 ug/mL)
T14 sequence (peptide): EEAMDDQWMQDEMEIGY

[18] = biological target: T15, Ala mutant SEQ ID NO: 39 (human); test: ELISA, peptide on plate (10 ug/mL)
T15 sequence (peptide): EENMDDQWMQDEAEIGY

[19] = biological target: T16, Ala mutant having 3-amino acid substitution, SEQ ID NO: 46 (human); test: ELISA, peptide on plate (10 ug/mL)
T16 sequence (peptide): EENMDDAAAQDEMEIGY

[20] = biological target: T17, Ala mutant SEQ ID NO: 31 (human); test: ELISA, peptide on plate (10 ug/mL)
T17 sequence (peptide): EENMADQWMQDEMEIGY

[21] = biological target: T18, Ala mutant SEQ ID NO: 30 (human); test: ELISA, peptide on plate (10 ug/mL)
T18 sequence (peptide): EENADDQWMQDEMEIGY

[22] = biological target: T19, TA0096 (peptide antigen corresponding to positions 340 to 356 of PAD4) (human); test: ELISA, peptide on plate (10 ug/mL)
T19 sequence (peptide): EENMDDQWMQDEMEIGY

[23] = biological target: T20, Ala mutant having 3-amino acid substitution, SEQ ID NO: 47 (human); test: ELISA, peptide on plate (10 ug/mL)
T20 sequence (peptide): EENMDDQWMAAAMEIGY

[24] = biological target: T21, Ala mutant SEQ ID NO: 37 (human); test: ELISA, peptide on plate (10 ug/mL)
T21 sequence (peptide): EENMDDQWMQAEMEIGY

[25] = biological target: full-length recombinant mouse PAD4 (mouse) (UniProt Q9Z183); test: ELISA, mouse PAD4 on plate, antibody 6.104E-05 ug/mL
[26] = biological target: full-length recombinant mouse PAD4 (mouse) (UniProt Q9Z183); test: ELISA, mouse PAD4 on plate, antibody 0.0625 ug/mL
[27] = biological target: full-length recombinant mouse PAD4 (mouse) (UniProt Q9Z183); test: ELISA, mouse PAD4 on plate, antibody 0.0002441 ug/mL
[28] = biological target: full-length recombinant mouse PAD4 (mouse) (UniProt Q9Z183); test: ELISA, mouse PAD4 on plate, antibody 0.0039063 ug/mL
[29] = biological target: full-length recombinant mouse PAD4 (mouse) (UniProt Q9Z183); test: ELISA, mouse PAD4 on plate, antibody 1 ug/mL
[30] = biological target: full-length recombinant mouse PAD4 (mouse) (UniProt Q9Z183); test: ELISA, mouse PAD4 on plate, antibody 0.015625 ug/mL
[31] = biological target: full-length recombinant mouse PAD4 (mouse) (UniProt Q9Z183); test: ELISA, mouse PAD4 on plate, antibody 0.25 ug/mL

Sequence of full-length recombinant mouse PAD4 (mouse) (Q9Z183 whole entry): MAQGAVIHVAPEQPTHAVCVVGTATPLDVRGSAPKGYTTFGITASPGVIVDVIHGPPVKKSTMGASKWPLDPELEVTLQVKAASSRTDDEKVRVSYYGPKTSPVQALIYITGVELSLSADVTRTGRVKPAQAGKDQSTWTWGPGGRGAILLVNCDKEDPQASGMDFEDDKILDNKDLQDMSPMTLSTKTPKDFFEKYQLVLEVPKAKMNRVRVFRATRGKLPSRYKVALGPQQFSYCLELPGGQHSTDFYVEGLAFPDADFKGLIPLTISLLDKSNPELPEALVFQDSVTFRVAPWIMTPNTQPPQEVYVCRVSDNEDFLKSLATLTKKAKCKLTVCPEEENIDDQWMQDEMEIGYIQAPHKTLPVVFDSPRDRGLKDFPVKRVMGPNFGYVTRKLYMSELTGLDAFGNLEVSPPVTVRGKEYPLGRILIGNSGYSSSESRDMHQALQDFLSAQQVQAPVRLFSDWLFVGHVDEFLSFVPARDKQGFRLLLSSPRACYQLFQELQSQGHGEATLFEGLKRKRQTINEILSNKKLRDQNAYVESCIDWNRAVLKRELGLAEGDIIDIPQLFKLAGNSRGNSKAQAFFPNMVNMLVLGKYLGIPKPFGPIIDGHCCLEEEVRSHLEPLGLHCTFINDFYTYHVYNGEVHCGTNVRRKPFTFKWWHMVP

absorbance 490 nm/630 nm [1]: 0.021 OD
absorbance 490 nm/630 nm [2]: 0.008 OD
absorbance 490 nm/630 nm [3]: 0.011 OD
absorbance 490 nm/630 nm [4]: 0.017 OD
absorbance 490 nm/630 nm [5]: 0.052 OD
absorbance 490 nm/630 nm [6]: 0.011 OD
absorbance 490 nm/630 nm [7]: 0.054 OD
absorbance 490 nm/630 nm [8]: 0.057 OD
absorbance 490 nm/630 nm [9]: 0.065 OD
absorbance 490 nm/630 nm [10]: 0.011 OD
absorbance 490 nm/630 nm [11]: 0.012 OD
absorbance 490 nm/630 nm [12]: 0.001 OD
absorbance 490 nm/630 nm [13]: 0.017 OD
absorbance 490 nm/630 nm [14]: 0.01 OD
absorbance 490 nm/630 nm [15]: 0.012 OD
absorbance 490 nm/630 nm [16]: 0.007 OD
absorbance 490 nm/630 nm [17]: 0.001 OD
absorbance 490 nm/630 nm [18]: 0.008 OD
absorbance 490 nm/630 nm [19]: 0.052 OD
absorbance 490 nm/630 nm [20]: 0.004 OD
absorbance 490 nm/630 nm [21]: 0.009 OD
absorbance 490 nm/630 nm [22]: 0.052 OD
absorbance 490 nm/630 nm [23]: 0.052 OD
absorbance 490 nm/630 nm [24]: 0.01 OD
absorbance 490 nm/630 nm [25]: 0.011 OD
absorbance 490 nm/630 nm [26]: 0.02 OD
absorbance 490 nm/630 nm [27]: 0.034 OD
absorbance 490 nm/630 nm [28]: 0.024 OD
absorbance 490 nm/630 nm [29]: 0.028 OD
absorbance 490 nm/630 nm [30]: 0.018 OD
absorbance 490 nm/630 nm [31]: 0.023 OD
Substance: anti-dinitrophenyl (DNP) antibody (negative control)
